Results taken from patent US20220089725A1.

B1: FCMR 2A5 antibody (antibody, V domains shown)
VH: EVQLVESGGDLVKPGGSLKLSCAASGFTFSSYGMSWVRQTPDKRLEWVATINSGGSSIYYPDSVKGRFTISRDNAKNTLYLQMSSLKSEDTAMYYCARHNYDSSYRYAMDYWGQGTSVTVSS
VL: DIKMTQSPSSMYASLGERVTITCKASQDINNFLSWFQQKPGKSPKTLIYRANGLVDGVPSRFSGSGSGQDYSLTISSLEYEDMGIYYCLQYDEFPPTFGGGTKLEFKR

Legend:
[1] = molecular target: human FCMR on blood cells (human) (UniProt O60667); assay: flow cytometry of fresh human whole blood, isotype control row of the left (2A5) panel; gated subset not stated; FMO row reads 24.7
UniProt O60667, sequence (O60667 17-390): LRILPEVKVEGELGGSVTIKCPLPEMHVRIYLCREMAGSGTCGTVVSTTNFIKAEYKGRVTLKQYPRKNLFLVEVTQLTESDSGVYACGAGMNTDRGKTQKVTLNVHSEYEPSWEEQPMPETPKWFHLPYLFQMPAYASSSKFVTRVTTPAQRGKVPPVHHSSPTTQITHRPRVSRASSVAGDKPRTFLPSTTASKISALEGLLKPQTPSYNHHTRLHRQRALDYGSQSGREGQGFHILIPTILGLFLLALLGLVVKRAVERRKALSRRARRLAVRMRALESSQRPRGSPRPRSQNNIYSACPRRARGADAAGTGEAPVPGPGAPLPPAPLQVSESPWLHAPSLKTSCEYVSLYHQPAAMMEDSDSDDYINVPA

[2] = molecular target: human FCMR on blood cells (human) (UniProt O60667); assay: flow cytometry of fresh human whole blood, isotype control row of the right (3F9) panel; gated subset not stated; FMO row reads 24.7
[3] = molecular target: recombinant human FCMR-Fc (human) (UniProt O60667); assay: SPR (Biacore), 25 C, antibody immobilised, FCMR-Fc titrated at 500 to 0 nM
[4] = molecular target: human FCMR on blood cells (human) (UniProt O60667); assay: flow cytometry of fresh human whole blood, gated CD19+ B cells, aToso 2A5 : AF647, left panel
[5] = molecular target: human FCMR on blood cells (human) (UniProt O60667); assay: flow cytometry of fresh human whole blood, gated CD3+CD4+ T cells, aToso 2A5 : AF647, left panel
[6] = molecular target: human FCMR on blood cells (human) (UniProt O60667); assay: flow cytometry of fresh human whole blood, gated CD3+CD8+ T cells, aToso 2A5 : AF647, left panel

Molecule | mean fluorescence intensity [1] | mean fluorescence intensity [2] | Kd [3] | koff [3] | kon [3] | mean fluorescence intensity [4] | mean fluorescence intensity [5] | mean fluorescence intensity [6]
Isotype Control (antibody) | 25.6 | 25.6 |  |  |  |  |  | 
B1 |  |  | 7.21 nM | 0.000247 s⁻¹ | 34700 M⁻¹ s⁻¹ | 960 | 247 | 414
